Assay: soluble on expression in E. coli; label from the status in PepcDB or PDB records

| Sequence | soluble on expression in E. coli |
| --- | --- |
| MAHHHHHHSLAEQIDLKTFKTDVADYEAARPEYPIGITDWITDEFLIDETSIILELGAGTGKFTPRIIASHPKEIIAVDVYPEMLDVLRKKFPNVDCRAGSAMAIPLEDESVDLVLCAQCFHWFANEEAMKEIYRVLKPNGKLGLVWNTRDDTVPWIEKVSKILGRYRKDAPSFVSWKWAELFPGHGFGKLRYCAFPFSRCLTVEELHTLMNSFSFIYKLPEEEKEKVHAELDEIAKTIPRVQNTDQIKLCYQTMAFSSEKEPAKEG | soluble |
| MAHHHHHHSLKCILLNQAEELPIEFLPKDGVYGKGKLFDSRNMEIENFTESDILQDARRAAEAHRRARYRVQSIVRPGITLLEIVRSIEDSTRTLLKGERNNGIGFPAGMSMNSCAAHYTVNPGEQDIVLKEDDVLKIDFGTHSDGRIMDSAFTVAFKENLEPLLVAAREGTETGIKSLGVDVRVCDIGRDINEVISSYEVEIGGRMWPIRPISDLHGHSISQFRIHGGISIPAVNNRDTTRIKGDSFYAVETFATTGKGSIDDRPPCSHFVLNTYKSRKLFNKDLIKVYEFVKDSLGTLPFSPRHLDYYGLVKGGSLKSVNLLTMMGLLTPYPPLNDIDGCKVAQFEHTVYLSEHGKEVLTRGDDY | not soluble |
| MAHYKAADSKREQFRRYLEKSGVLDTLTKVLVALYEEPEKPNSALDFLKHHLGAATPENPEIELLRLELAEMKEKYEAIVEENKKLKAKLAQYEPPQEEKRAE | soluble |
| MAICESGALPSHVGALSYSGGAASSFFGRRNADGLNDKWLALRDAFRAAGGDLLAIEDARSAALDFVIHVNAHRLRHDVPAFVILAESEFIHPPNVDWRMLQQYKGIFTWMPDLVRRGIGTEICLAHPLGAGVVDGYQERPQLLVMIASNKALPVWRPAVDLYRERVRAIRWFEKHAPQAFALYGHDWDKSPRLPTPLGGIVHGVEFVLPWRLQWFPSWKGVIPSKREVLRHARFSLCYENVRGLRGYITEKIFDAFCAGNVPVYWGAEDITDYIPADCFIDRRAFGDYADLYRYLTSMPETRYIQYQQAICDFLVSPAAKRFSSEIFATTIVGKVLDTLGRRDE | not soluble |
| MAIELYSQREIEKIRKASQIVAEVLHIVAENVKPGVSTWDLEMIARKETEKRGAKPAFLGYKPPFSDVRYPAALCISINDEVVHGLPKKEKVIKEGDVVSIDFGAIYDGYAGDSAITVIAGKGSPEAQKLLEATKEALYNAIEKALPGKKVGDITKAIHETAEKYGFKTILRYGGHGVGRKVHQEPFVPNNVKDIGKKNPRLRQGMVIAIEPMLSIGTEETVEDGDGWTVKTKDGSLAAHFEHTVAITKKGPVILTEL | soluble |
| MAIKITPDEFSLLIQRLNKKWRVFAPSAEFRGGRFSDTDNIIYQRISGWRDLIWHEKSHMSPNTIIAPITETLFYFDKDTIQIAETDTSPIIIFARACDINAMSRLDYMYLSNGNNSDYSYQLLREHIRFVLIECEESFENCFCVSMGTNKTDCYSAAMRFSDEGALVSIRDPFIEAAIQGLGQEADYTPSFVSENRETVVTPDSVCHDPQKIRDILTHHPLWDAYDSRCISCGRCTTGCPTCTCYSVFDVAYDENPQRGERRRQWASCMVPGFSDMAGGHGFREKPGERLRYRALHKVNDYKARNGIEHMCVGCGRCDDRCPQYIKFSLIINKMTAAVRQALAEEA | not soluble |
| MAIKSVVVGKGTLTLAMKDAHTQALDFSAQVTSAKFQPDSSTGDSITVLSGETIPGKKSFGGHLEIDFLQDFSTNGIVDFSYKNAGKEADFVYTPNTEAKAKLQGTVIIAPLEVGDDVEAIAKSAAKWVVPSLPTFTPGG | not soluble |
| MAIPFFEEEHAPKSEPSGDQVDSPMAFSIDPGHDQVDFEGPPSAAEELPPPGATSEPVAPPSAEEQLLAWKFLAITMCKVLKQFYQQHKSSGKSSKLKATVQIQPQAQ | not soluble |
| MAISFDYSNALPFMQENELDYLSEFVKAAHHMLHERKGPGSDFLGWVDWPIRYDKNEFSRIKQAAERIRNHSDALVVIGIGGSYLGARAAIEALSHTFHNQMNDTTQIYFAGQNISSTYISHLLDVLEGKDLSINVISKSGTTTEPAIAFRIFRDYMEKKYGKEEARKRIYVTTDRTKGALKKLADQEGYETFVIPDNIGGRYSVLTAVGLLPIAVAGLNIDRMMEGAASAYHKYNNPDLLTNESYQYAAVRNILYRKGKAIELLVNYEPSLHYVSEWWKQLFGESEGKDQKGLFPASVDFTTDLHSMGQYVQEGRRNLIETVLHVKKPQIELTIQEDPENIDGLNFLAGKTLDEVNKKAFQGTLLAHVDGGVPNLIVELDEMNEYTFGEMVYFFEKACGISGHLLGVNPFDQPGVEAYKKNMFALLGKPGFEDEKAALMKRLSK | soluble |

Source: the DeepSol protein solubility set
